Data: patent US20260242478A1 (published 2026)
Where no end group is shown, it is not given here.

B1: Phage-1314 (peptide)
peptide: YCEGHLDEYLQKCM
notes: Peptide-87 library clone, tested as clonal phage (peptide fused to pIII of the bacteriophage)
B2: Phage-1322 (peptide)
peptide: YCEGHIKDYMTKCL
notes: as for B1
B3: Phage-1312 (peptide, not shown: large carriers)
peptide: YCDGHLETYMQKCL
modifications: cysteine pairing not given here; also: fused to phage pIII protein, pIII and linker sequence not given here
notes: Tested as clonal phage supernatant
B4: Phage-1321 (peptide)
peptide: YCDGHSTEYMWKCL
notes: as for B1
B5: Phage-1325 (peptide)
peptide: YCEGHAPVYMQKCL
notes: as for B1
B6: Phage-1316 (peptide)
peptide: YCEGHVPQYMGKCL
notes: as for B1
B7: Phage-1317 (peptide)
peptide: YCDGHAAMYMSKCL
notes: as for B1
B8: Phage-1790 (peptide, not shown: large carriers)
peptide: EPKWCVPRGLCNYD
notes: Clonal phage supernatant; also called Peptide-240
B9: Phage-1324 (peptide)
peptide: YCEGHMQWYMAKCL
notes: as for B1
B10: Phage-1315 (peptide)
peptide: YCAGHTTEYIVKCL
notes: as for B1
B11: Phage-1319 (peptide)
peptide: YCAGHAQEYMRKCL
notes: as for B1
B12: Phage-1326 (peptide)
peptide: YCDGHDEQYLMKCL
notes: as for B1
B13: Phage-1318 (peptide)
peptide: YCEGHLGLYMKKCL
notes: as for B1
B14: Phage-1320 (peptide)
peptide: YCAGHIPQYLNKCL
notes: as for B1
B15: Phage-1323 (peptide)
peptide: YCAGHDAEYMQKCL
notes: as for B1

Experiments:
[1] = biological target: T1, Anti-CD28 Fab (SEQ ID NOs: 696, 697); assay: phage ELISA; biotinylated anti-CD28 Fab on neutravidin plate, clonal phage supernatant, anti-M13 HRP detection;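 as to Anti-CD28 Fab signal (phage binding ELISA): crude supernatants of single phage clones picked after panning were screened for binding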;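 as to Phage binding ELISA, Anti-CD28 Fab signal: before phage addition, wells were pretreated with either CD28 antigen in blocking buffer or only blocking buffer, and phage was added without an intervening wash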
T1 construct: Biotinylated and captured on neutravidin coated plates in the phage ELISA
T1 sequence (VH, as listed by the source, chain 1 of 2): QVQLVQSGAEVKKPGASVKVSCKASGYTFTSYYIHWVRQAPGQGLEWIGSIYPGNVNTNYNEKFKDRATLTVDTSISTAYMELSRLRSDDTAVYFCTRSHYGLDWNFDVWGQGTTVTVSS
T1 sequence (VL, as listed by the source, chain 2 of 2): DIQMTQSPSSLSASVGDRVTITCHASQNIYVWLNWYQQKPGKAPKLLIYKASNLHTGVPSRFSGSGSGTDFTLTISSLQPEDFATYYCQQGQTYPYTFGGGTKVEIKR
Procedure: (§1) Clonal phage were harvested as crude supematants and screened via standard ELISAs. […] Prior to the addition of clonal phage, wells were incubated with blocking buffer and CD28 antigen or blocking buffer alone. Without washing or aspirating, clonal phage supematants were then added to the wells and incubated for a short time. Wells were then washed followed by detection of bound phage using a horse radish conjugated anti-M13 antibody.

[2] = biological target: T1, Anti-CD28 Fab (SEQ ID NOs: 696, 697); assay: phage ELISA; biotinylated anti-CD28 Fab on neutravidin plate, wells pre-incubated with CD28 antigen as competitor, anti-M13 HRP detection
Procedure: as §1

[3] = biological target: Anti-CD28 Fab (SEQ ID NOs: 696, 697); assay: phage binding ELISA on captured anti-CD28 Fab, wells pre-incubated with CD28 antigen as competitor;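 also: crude clonal phage supernatants added to wells preloaded with CD28 antigen, bound phage read by HRP-conjugated anti-M13 antibody, control wells got blocking buffer alone without CD28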
Target sequence in this assay (VH, as listed by the source, chain 1 of 2): as the sequence (VH, as listed by the source, chain 1 of 2) above
Target sequence in this assay (VL, as listed by the source, chain 2 of 2): as the sequence (VL, as listed by the source, chain 2 of 2) above
Procedure: (§2) After panning, phage infected bacteria were plated out and colonies picked into 96 well blocks. Clonal phage was then amplified and separated from bacterial cells via centrifugation.
(§3) Clonal phage were harvested as crude supematants and screened via standard ELISAs. […] Prior to the addition of clonal phage, wells were incubated with blocking buffer and CD28 antigen or blocking buffer alone. Without washing or aspirating, clonal phage supematants were then added to the wells and incubated for a short time. Wells were then washed followed by detection of bound phage using a horse radish conjugated anti-M13 antibody. Clonal phage of interest were then sent for sequence analysis.

[4] = biological target: Anti-CD28 Fab (SEQ ID NOs: 696, 697); assay: phage binding ELISA, clonal phage on biotinylated anti-CD28 Fab captured on neutravidin plates;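 also: crude clonal phage supernatants added to wells pretreated with CD28 antigen or blocking buffer only, bound phage detected by HRP-linked anti-M13 antibody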
Target sequence in this assay (VH, as listed by the source, chain 1 of 2): as the sequence (VH, as listed by the source, chain 1 of 2) above
Target sequence in this assay (VL, as listed by the source, chain 2 of 2): as the sequence (VL, as listed by the source, chain 2 of 2) above
Procedure: as §2, §3

[5] = biological target: T2, Anti-PSMA Fab (SEQ ID NOs: 19, 20); assay: phage binding ELISA; biotinylated PSMA Fab on neutravidin plate pre-incubated with PSMA antigen (competitor), anti-M13 HRP detection;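 also: competition ELISA where clonal phage supernatants were added to wells preincubated with PSMA antigen or with blocking buffer only as control, bound phage read via HRP-coupled anti-M13 antibody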
T2 construct: also called 006 PSMA Fab
Procedure: (§4) Clonal phage were harvested as crude supernatants and screened via standard ELISAs. […] Prior to the addition of clonal phage. wells were incubated with blocking buffer and PSMA antigen or blocking buffer alone. Without washing or aspirating, clonal phage supernatants were then added to the wells and incubated for a short time. Wells were then washed followed by detection of bound phage using a horse radish conjugated anti-M13 antibody.

[6] = biological target: T2, Anti-PSMA Fab (SEQ ID NOs: 19, 20); assay: phage binding ELISA; biotinylated PSMA Fab on neutravidin plate, clonal phage supernatant, anti-M13 HRP detection;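 also: wells were preincubated with blocking buffer either containing PSMA antigen or without it before crude phage supernatant was added, briefly incubated, then washed prior to detection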
Procedure: as §4

[7] = biological target: Anti-CD28 Fab (SEQ ID NOs: 696, 697); assay: phage ELISA; biotinylated anti-CD28 Fab on neutravidin plate, clonal phage supernatant, anti-M13 HRP detection;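 as to Anti-CD28 Fab signal (phage binding ELISA): crude supernatants of single phage clones picked after panning were screened for binding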;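 as to Phage binding ELISA, Anti-CD28 Fab signal: before phage addition, wells were pretreated with either CD28 antigen in blocking buffer or only blocking buffer, and phage was added without an intervening wash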
Target sequence in this assay (VH, as listed by the source, chain 1 of 2): as the sequence (VH, as listed by the source, chain 1 of 2) above
Target sequence in this assay (VL, as listed by the source, chain 2 of 2): as the sequence (VL, as listed by the source, chain 2 of 2) above

[8] = biological target: Anti-CD28 Fab (SEQ ID NOs: 696, 697); assay: phage ELISA as above; wells pre-incubated with CD28 antigen as competitor
Target sequence in this assay (VH, as listed by the source, chain 1 of 2): as the sequence (VH, as listed by the source, chain 1 of 2) above
Target sequence in this assay (VL, as listed by the source, chain 2 of 2): as the sequence (VL, as listed by the source, chain 2 of 2) above
Procedure: as §2, §3

Binder | Phage binding ELISA, Anti-CD28 Fab signal [1] | Phage binding ELISA, Anti-CD28 Fab signal in the presence of CD28 [2] | Anti-CD28 Fab signal in the presence of CD28 (phage binding ELISA) [3] | Anti-CD28 Fab signal (phage binding ELISA) [4] | also measured
LCAAGATYPWPICL [Phage-1562] | 1.46 | 0.08 | – | – | –
TCSAGATYMWPACF [Phage-1567] | 1.44 | 0.1 | – | – | –
TCSAGATYAWPACF [Phage-1568] | 1.44 | 0.08 | – | – | –
B1 | – | – | 0.08 | 0.51 | –
TAHHCKPAWMCTGF (peptide, not shown: large carriers, Clonal phage supernatant) [Phage-1796] | – | – | – | – | Anti-PSMA Fab signal in the presence of PSMA [5]: 0.103; Anti-PSMA Fab (SEQ ID NOs: 19, 20) signal [6]: 2.42
TCAAGAHYSWPFCM [Phage-1575] | 1.42 | 0.07 | – | – | –
B2 | – | – | 0.08 | 0.47 | –
B3 | – | – | – | – | Anti-CD28 Fab signal (phage binding ELISA) [7]: 0.53; Anti-CD28 Fab signal in the presence of CD28 (phage binding ELISA) [8]: 0.08
IVPLCKPAWMCKLF (peptide, not shown: large carriers, Clonal phage supernatant) [Phage-1792] | – | – | – | – | Anti-PSMA Fab signal in the presence of PSMA [5]: 0.221; Anti-PSMA Fab (SEQ ID NOs: 19, 20) signal [6]: 2.48
SCSAGAMYQWPLCF [Phage-1565] | 1.44 | 0.09 | – | – | –
VQIQCRPAWMCLGF (peptide, not shown: large carriers, Clonal phage supernatant) [Phage-1794] | – | – | – | – | Anti-PSMA Fab signal in the presence of PSMA [5]: 0.127; Anti-PSMA Fab (SEQ ID NOs: 19, 20) signal [6]: 2.44
B4 | – | – | 0.06 | 0.49 | –
VEKVCKPVWMCVGF (peptide, not shown: large carriers, Clonal phage supernatant) [Phage-1798] | – | – | – | – | Anti-PSMA Fab signal in the presence of PSMA [5]: 0.156; Anti-PSMA Fab (SEQ ID NOs: 19, 20) signal [6]: 2.41
B5 | – | – | 0.08 | 0.44 | –
B6 | – | – | 0.08 | 0.5 | –
B7 | – | – | 0.07 | 0.5 | –
FTNYCVPSWMCTGF (peptide, not shown: large carriers, Clonal phage supernatant) [Phage-1797] | – | – | – | – | Anti-PSMA Fab signal in the presence of PSMA [5]: 0.129; Anti-PSMA Fab (SEQ ID NOs: 19, 20) signal [6]: 2.42
AVKACIPEWMCIGF (peptide, not shown: large carriers, Clonal phage supernatant) [Phage-1793] | – | – | – | – | Anti-PSMA Fab signal in the presence of PSMA [5]: 0.106; Anti-PSMA Fab (SEQ ID NOs: 19, 20) signal [6]: 2.44

Binder | Phage binding ELISA, Anti-CD28 Fab signal [1] | Phage binding ELISA, Anti-CD28 Fab signal in the presence of CD28 [2] | Anti-CD28 Fab signal in the presence of CD28 (phage binding ELISA) [3] | Anti-CD28 Fab signal (phage binding ELISA) [4] | also measured
B8 | – | – | – | – | Anti-PSMA Fab signal in the presence of PSMA [5]: 0.0587; Anti-PSMA Fab (SEQ ID NOs: 19, 20) signal [6]: 1.14
WCDQFFHYKWPLCL [Phage-1573] | 1.42 | 0.07 | – | – | –
TCEDGFHFSWPECF [Phage-1570] | 1.44 | 0.07 | – | – | –
SCAAGATYVWPMCF [Phage-1574] | 1.42 | 0.07 | – | – | –
B9 | – | – | 0.09 | 0.45 | –
SCSAGALWKWPVCF [Phage-1563] | 1.45 | 0.07 | – | – | –
B10 | – | – | 0.05 | 0.5 | –
AEVKCIPQWMCQGF (peptide, not shown: large carriers, Clonal phage supernatant) [Phage-1795] | – | – | – | – | Anti-PSMA Fab signal in the presence of PSMA [5]: 0.0852; Anti-PSMA Fab (SEQ ID NOs: 19, 20) signal [6]: 2.43
TCAAGANWHWPWCF [Phage-1561] | 1.46 | 0.15 | – | – | –
B11 | – | – | 0.07 | 0.49 | –
B12 | – | – | 0.07 | 0.44 | –
YFVQCRPAWMCEGF (peptide, not shown: large carriers, Clonal phage supernatant) [Phage-1791] | – | – | – | – | Anti-PSMA Fab signal in the presence of PSMA [5]: 0.339; Anti-PSMA Fab (SEQ ID NOs: 19, 20) signal [6]: 2.51
TCSAGFSYKWPWCW [Phage-1564] | 1.45 | 0.06 | – | – | –
TCSAGATYTWPSCF [Phage-1572] | 1.42 | 0.06 | – | – | –
B13 | – | – | 0.06 | 0.49 | –
WCGVGMDWRWPECL [Phage-1569] | 1.44 | 0.16 | – | – | –
B14 | – | – | 0.07 | 0.49 | –
B15 | – | – | 0.06 | 0.46 | –
